Experimental data published in doi:10.1101/521369 (bioRxiv, 2019).

Target: T1, Alexa488-PLCβ1 (purified PLCβ1a) (UniProt P10687 1-1216, Alexa488 on the N-terminus)
T1 sequence: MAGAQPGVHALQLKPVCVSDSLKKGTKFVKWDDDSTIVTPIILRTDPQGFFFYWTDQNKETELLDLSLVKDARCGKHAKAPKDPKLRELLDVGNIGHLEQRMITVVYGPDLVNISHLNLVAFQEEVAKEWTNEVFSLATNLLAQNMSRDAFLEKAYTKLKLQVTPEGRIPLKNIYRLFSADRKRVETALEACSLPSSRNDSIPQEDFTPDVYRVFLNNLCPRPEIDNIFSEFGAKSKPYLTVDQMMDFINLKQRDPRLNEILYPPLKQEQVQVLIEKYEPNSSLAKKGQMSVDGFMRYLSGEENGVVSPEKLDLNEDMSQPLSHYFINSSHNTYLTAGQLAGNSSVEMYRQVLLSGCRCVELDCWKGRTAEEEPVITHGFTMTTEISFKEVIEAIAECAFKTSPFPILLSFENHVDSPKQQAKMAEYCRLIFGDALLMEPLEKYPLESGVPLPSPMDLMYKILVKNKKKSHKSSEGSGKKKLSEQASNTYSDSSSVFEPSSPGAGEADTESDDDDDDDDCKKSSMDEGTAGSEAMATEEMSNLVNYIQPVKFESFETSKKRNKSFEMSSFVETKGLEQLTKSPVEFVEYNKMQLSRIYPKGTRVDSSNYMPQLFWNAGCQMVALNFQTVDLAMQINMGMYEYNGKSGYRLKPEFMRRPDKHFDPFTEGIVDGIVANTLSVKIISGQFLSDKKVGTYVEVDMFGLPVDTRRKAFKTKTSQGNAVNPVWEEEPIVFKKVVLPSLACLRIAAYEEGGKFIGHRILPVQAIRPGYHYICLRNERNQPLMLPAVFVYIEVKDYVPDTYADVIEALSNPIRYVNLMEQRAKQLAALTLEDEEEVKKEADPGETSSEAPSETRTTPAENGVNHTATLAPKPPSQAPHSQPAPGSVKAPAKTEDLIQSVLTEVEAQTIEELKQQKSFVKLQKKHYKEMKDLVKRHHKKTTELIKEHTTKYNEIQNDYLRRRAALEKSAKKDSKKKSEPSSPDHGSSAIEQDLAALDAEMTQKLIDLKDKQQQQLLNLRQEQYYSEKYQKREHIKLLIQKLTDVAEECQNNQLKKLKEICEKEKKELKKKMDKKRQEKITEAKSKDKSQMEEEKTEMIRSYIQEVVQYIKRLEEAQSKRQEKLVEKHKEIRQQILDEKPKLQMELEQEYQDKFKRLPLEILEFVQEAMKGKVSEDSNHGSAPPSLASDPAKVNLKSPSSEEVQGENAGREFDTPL
Assay: other fluorescence titration

B1: Alexa594-eIF5A (purified) (natural protein)
chain: not shown
modifications: Alexa594 on the N-terminus
Kd: 27 ± 5 nM
